Substrate: NCCc1ccc(O)c(O)c1
Assay: cells, lysate or membranes
Conditions: other: HEK293S cells; 14C-DA 0.3–60 μM; s.e.m.; pH 7.4

B1: dDATwt (Drosophila melanogaster) (protein)
chain: MSPTGHISKSKTPTPHDNDNNSISDERETWSGKVDFLLSVIGFAVDLANVWRFPYLCYKNGGGAFLVPYGIMLVVGGIPLFYMELALGQHNRKGAITCWGRLVPLFKGIGYAVVLIAFYVDFYYNVIIAWSLRFFFASFTNSLPWTSCNNIWNTPNCRPFESQNASRVPVIGNYSDLYAMGNQSLLYNETYMNGSSLDTSAVGHVEGFQSAASEYFNRYILELNRSEGIHDLGAIKWDMALCLLIVYLICYFSLWKGISTSGKVVWFTALFPYAVLLILLIRGLTLPGSFLGIQYYLTPNFSAIYKAEVWVDAATQVFFSLGPGFGVLLAYASYNKYHNNVYKDALLTSFINSATSFIAGFVIFSVLGYMAHTLGVRIEDVATEGPGLVFVVYPAAIATMPASTFWALIFFMMLLTLGLDSSFGGSEAIITALSDEFPKIKRNRELFVAGLFSLYFVVGLASCTQGGFYFFHLLDRYAAGYSILVAVFFEAIAVSWIYGTNRFSEDIRDMIGFPPGRYWQVCWRFVAPIFLLFITVYGLIGYEPLTYADYVYPSWANALGWCIAGSSVVMIPAVAIFKLLSTPGSLRQRFTILTTPWRDQQSMAMVLNGVTTEVTVVRLTDTETAKEPVDV
In the case of B1, the Km is reported as 2.1 ± 0.7 µM.
